Measured values: patent US20210130473A1, “TGFßR1 INHIBITOR-ASGR ANTIBODY CONJUGATES AND USES THEREOF” (Silverback Therapeutics, Inc., priority 2019, published 2021)
Residue numbers refer to the chain shown, from its start. Names and notes keep the numbering of the source.

T1: rat ASGR1 (Rattus norvegicus, UniProt P02706)
T1 construct: expressed in transfected cells; host or cells: CHO-S (transient)
T1 sequence (P02706 1-284): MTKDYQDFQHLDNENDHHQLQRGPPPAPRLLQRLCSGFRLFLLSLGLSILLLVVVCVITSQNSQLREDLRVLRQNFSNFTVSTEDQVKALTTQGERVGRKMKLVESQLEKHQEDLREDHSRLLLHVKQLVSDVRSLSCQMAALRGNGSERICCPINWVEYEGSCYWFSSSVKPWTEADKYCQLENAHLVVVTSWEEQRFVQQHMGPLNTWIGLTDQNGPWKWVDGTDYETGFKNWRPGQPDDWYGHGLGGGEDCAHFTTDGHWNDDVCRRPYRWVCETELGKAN

T2: human ASGR1 extracellular domain (ECD) (Homo sapiens, UniProt P07306)
T2 sequence (P07306 62-291 limits assumed): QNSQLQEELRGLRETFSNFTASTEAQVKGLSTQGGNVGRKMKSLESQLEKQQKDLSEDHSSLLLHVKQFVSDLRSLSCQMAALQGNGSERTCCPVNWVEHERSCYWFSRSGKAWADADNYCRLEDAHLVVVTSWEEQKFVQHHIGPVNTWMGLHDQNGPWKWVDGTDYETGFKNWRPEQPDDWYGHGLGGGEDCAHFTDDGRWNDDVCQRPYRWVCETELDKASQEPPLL

T3: HepG2 cells (which express ASGR1) (Homo sapiens, UniProt P07306)
T3 construct: endogenous in cells; host or cells: HepG2
T3 sequence (P07306 1-291): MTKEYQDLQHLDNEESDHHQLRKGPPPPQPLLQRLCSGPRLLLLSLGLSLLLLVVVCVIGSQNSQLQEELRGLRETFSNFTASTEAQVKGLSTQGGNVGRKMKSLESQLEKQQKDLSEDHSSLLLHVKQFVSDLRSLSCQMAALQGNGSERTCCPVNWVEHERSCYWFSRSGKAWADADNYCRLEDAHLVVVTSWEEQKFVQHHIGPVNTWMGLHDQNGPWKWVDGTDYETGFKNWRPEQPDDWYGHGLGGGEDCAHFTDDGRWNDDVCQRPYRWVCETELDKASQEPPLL

B1: hzH8K-1: "humanized anti-ASGR1 antibodies hzH8K-1 and hzH8K-10 as compared to parent mouse anti-ASGR1 antibody H8K" (antibody, V domains shown)
VH: QVQLQESGPGLVKPSQTLSLTCTVSGGSISSDYAWNWIRQHPGKGLEWIGYRSYRGSTSYNPSLKSRVTISVDTSKNQFSLKLSSVTAADTAVYYCARRGYYGSSSHWYFDVWGQGTTVTVSS
VL: DIQMTQSPSSLSASVGDRVTITCRASENIYSYLAWYQQKPGKAPKLLIYNAKTLAEGVPSRFSGSGSGTDFTLTISSLQPEDFATYYCQHHYGTPLTFGGGTKVEIK
B2: hzL4L-7: "humanized anti-ASGR1 antibodies hzL4L-7 and hzL4L-14 as compared to parent mouse anti-ASGR1 antibody L4L" (antibody, V domains shown)
VH: QVQLQESGPGLVKPSQTLSLTCTVSGYSISSDYAWNWIRQHPGKGLEWIGYISYSGSTRYNPSLKSRVTITRDTSKNQFSLKLSSVTAADTAVYYCARRYRYDEGYGMDYWGQGTTVTVSS
VL: DIQMTQSPSSLSASVGDRVTITCRASENIYSNLAWYQQKPGKAPKLLIYAATNLADGVPSRFSGSGSGTDFTLTISSLQPEDFATYYCQHFWGTPPWTFGGGTKVEIK
B3: hzL4L-8 (antibody, V domains shown)
VH: B2 VH with S30T, V68I, T69S, T71S, R72V
VL: B2 VL
B4: hzL4L-6: humanized L4L clone: "reduction in percent purity ... seen with the chimeric and hzL4L-1, -2 and -6" (antibody, V domains shown)
VH: B2 VH with S30T
VL: B2 VL
B5: hzL4L-5 (antibody, V domains shown)
VH: B2 VH with V68I, T69S
VL: B2 VL
B6: hzL4L-2: humanized L4L clone: "reduction in percent purity ... seen with the chimeric and hzL4L-1, -2 and -6" (antibody, V domains shown)
VH: B2 VH with Y27G, S30T, V68I, T69S
VL: B2 VL
B7: hzL4L-4 (antibody, V domains shown)
VH: B2 VH with S30T, T71S, R72V
VL: B2 VL
B8: hzL4L-3 (antibody, V domains shown)
VH: B2 VH with S30T, V68I, T69S
VL: B2 VL
B9: hzL4L-11: "Humanized sequences hzL4L-10 through hzL4L-14 were further modified by adding additional mutations in the light chain CDR2/FR3 junction, namely D56S ..., D56E ... or G57A" (antibody, V domains shown)
VH: B2 VH with S30T, V68I, T69S
VL: B2 VL with D56E
B10: hzL4L-10: "Humanized sequences hzL4L-10 through hzL4L-14 were further modified by adding additional mutations in the light chain CDR2/FR3 junction, namely D56S ..., D56E ... or G57A" (antibody, V domains shown)
VH: B2 VH with S30T, V68I, T69S
VL: B2 VL with D56S
B11: hzL4L-9 (antibody, V domains shown)
VH: B2 VH with V68I, T69S, T71S, R72V
VL: B2 VL

Molecular target: T1, rat ASGR1
Test: Binding to cell surface expressed rat ASGR1 (transiently transfected CHO-S cells, GUAVA)
Details: not given
Method: Anti-human ASGR1 antibodies of this disclosure were examined for cross-reactivity with Cynomolgus macaque and rat ASGR1. Briefly, sequence encoding Cynomolgus macaque or rat ASGR1 was transiently transfected into CHO-S cells. Transfected cells were before performing cell binding assay. A total of about 1.5×10^4 transfected cells/well were added to 96-well V-bottom assay plate, incubated at 37° C., 5% CO2 for 48-72 hours, and then washed with culture medium before adding 100 μl of each ASGR1 antibody at different concentrations starting from 100 nM and 3-fold dilutions to a total of eight wells. The cells with antibody were incubated for 40 minutes at 4° C., then washed three times with 200 μl of fresh culture medium. To each well was added 50 μl PE conjugated goat anti-human Fc (SouthernBiotech) at 1:200 dilution in culture medium and then incubated at 4° C. for 20 minutes. After washing the plate once, the treated cells were resuspended in 200 μl culture medium and then the stained cells were analyzed on GUAVA® using Incyte software.
Anti-human ASGR1 antibodies of this disclosure were examined for cross-reactivity with Cynomolgus macaque and rat ASGR1. […] After washing the plate once, the treated cells were resuspended in 200 μl culture medium and then the stained cells were analyzed on GUAVA® using Incyte software.

Row | Molecule | binding to rat ASGR1
1 | B1 | not rat cross-reactive
2 | B2 | not rat cross-reactive

Molecular target: T2, human ASGR1 extracellular domain (ECD)
Test: Effect of calcium on anti-ASGR1 binding and dissociation (OCTET Red 96, Penta-His biosensors)
Design: key to Ca2+ sensitivity during association / Ca2+ sensitivity during dissociation / Ca2+ Sensitivity: N = No; Y = Yes
Details: binding to human ASGR1 ECD with or without calcium, OCTET
Method: The ability of anti-human ASGR1 antibodies of this disclosure to bind to human ASGR1 in the presence or absence of calcium in binding buffer was examined. Briefly, ASGR1 antibodies were bound to immobilized human ASGR1 extracellular domain (ECD) at saturating levels and subsequently dissociated under three different conditions as follows: (a) binding and dissociation with buffer containing calcium (PBS+1% BSA+0.2% Tween20+0.9 mM CaCl2), pH 7.4); (b) binding with buffer containing calcium and dissociation with buffer lacking calcium; and (c) binding and dissociation with buffer lacking calcium. Analysis of ASGR1 antibody binding to human ASGR1 ECD was performed using the OCTET® Red 96 instrument and analyzed using the OCTET®Data Analysis Software 9.0 (ForteBio). His-tagged human ASGR1 ECD was immobilized to OCTET® Penta-His biosensors and ASGR1 antibodies were subjected to avidity binding under the conditions described above. Association with the ASGR1 ECD was measured by the rate of and increase in magnitude of signal response at a given antibody concentration. Dissociation from the ASGR1 ECD was measured the rate of loss in signal upon removal of the antibody and further incubation with or without Ca^2+. […] Also tested were humanized antibodies hzH8K-1 and hzL4L-7.
Further analysis of the antibodies of this disclosure was to determine whether the presence of calcium was needed for binding (i.e., during association) of the antibodies to human ASGR1 ECD. […]

Row | Molecule | Ca2+ sensitivity during association
3 | B1 | N
4 | B2 | N

Same assay, conditions: dissociation from human ASGR1 ECD with or without calcium, OCTET

Row | Molecule | Ca2+ sensitivity during dissociation
5 | B1 | N
6 | B2 | N

Same assay, conditions: overall summary column

Row | Molecule | Ca2+ Sensitivity
7 | B1 | N
8 | B2 | N

Same assay, conditions: sensitive: difference in binding signal after dissociation with vs without calcium >±10%

Row | Molecule | calcium sensitivity of binding to human ASGR1 ECD
9 | B2 | lacking sensitivity to calcium

Molecular target: T3, HepG2 cells (which express ASGR1)
Test: Guava HepG2 cell binding screen of anti-ASGR1 mAbs
Details: humanized L4L clones; Good / Poor
Method: Additionally, hybridomas producing monoclonal antibodies (mAbs) specific for human ASGR1 were prepared from Balb/C mice immunized with ASGR1-AviHis at a service provider using their propriety protocol. Antibody heavy and light chain sequences were obtained, amplified, and cloned. Clone supernatants containing the expressed mAbs were screened for binding to a human ASGR1-IgG1Fc fusion protein, and those with a positive signal as measured by enzyme linked immunosorbent assay (ELISA) were screened for cell binding on HepG2 cells (which express ASGR1). […] The isolated mAbs were further analyzed for the additional characteristics including, for example, titer, low aggregate content following protein A purification, high titer, lack of cross-blocking of ligand GalNac, calcium sensitivity, and cross-reactivity with rat ASGR1 protein.

Row | Molecule | Guava HepG2 Screen
10 | B2 | Good
11 | B3 | Poor
12 | B4 | Good
13 | B5 | Good
14 | B6 | Good
15 | B7 | Poor
16 | B8 | Good
17 | B9 | Good
18 | B10 | Good
19 | B11 | Poor
